Measured values from paper PMC5944921.

How the values were obtained:
[1] = target: GLA cross-linked soluble BG505 SOSIP trimer (GLA-SOSIP trimer) (HIV-1 BG505); assay: ELISA; capture ELISA: plates coated with 4 ug/mL mAb 2G12, SOSIP or GLA-SOSIP trimer (0.2 ug/mL) captured, titration series of biotinylated mAbs or ligand; binding index = AUC on GLA-SOSIP trimer / AUC on SOSIP trimer
[2] = target: GLA cross-linked soluble BG505 SOSIP trimer (GLA-SOSIP trimer) (HIV-1 BG505); assay: SPR; ProteOn XPR36, GLC chip with human antibody capture kit; 2G12 captured, then about 600 RU of trimer; dilution series of Fab passed over for 180 s, 600 s buffer; HBS-EP+ pH 7.4 with 1 mg/mL BSA; binding index = signal ratio GLA-SOSIP trimer / SOSIP trimer

Row | Substance | fold loss of binding against SOSIP trimer (ELISA binding index) [1] | fold loss of binding against SOSIP trimer (SPR binding index) [2]
1 | PGT145 (mAb) (antibody) | 3.3 fold | –
2 | PGT145 Fab | – | 5.3 fold
